Results published in patent US20250340881A1, “PHARMACEUTICAL COMPOSITION FOR TREATING CANCER COMPRISING FOXM1 MUTANT OR FOXM1 SHRNA” (Industry-University Cooperation Foundation Hanyang …, priority 2022, published 2025).

Tests used:
A549 lung cancer cells [1] = test: Real-time PCR of EMT, M2-inducing and immune evasion factors in A549 cells treated with Thiostrepton; type: cell-based; details: 5 μM, 48 h, Mock and S25E cells
THP-1 cells = test: M1 and M2 marker mRNA in THP-1 cells co-cultured with FoxM1-expressing A549 cells; type: cell-based, human; details: co-culture 48 h
Description: In the animal tissues, it was confirmed that both PD-L1 protein expression and CD274 mRNA expression were increased in cancer cells expressing FoxM1 (FIG. 5D, 5E). […] From the results described above, we investigated whether FoxM1 phosphorylated point mutant (S25E) affects the polarization of macrophages in the tumor microenvironment. After co-culturing human monocyte THP-1 cells and the cell groups over-expressing FoxM1 point mutants, M1 and M2 markers were examined in THP-1 cells.
Next, an expression suppression system for suppressing FoxM1 expression was established to observe whether the FoxM1 phosphorylated point mutant (S25E) directly affects polarization to M2 macrophages. First, to inhibit the expression of mRNA of FoxM1, a pLKO-puro.1-hFoxM1 plasmid was produced using a pLKO-puro.1 vector to construct shRNAs targeting nucleotide sequences at 709-729 positions in the human FoxM1 mRNA sequence. The following sequences can be used as target sequences for human FoxM1 shRNA production, and oligonucleotides with the following sequences can be used as primers for shRNA production. The gene accession number for human FoxM1 mRNA in PubMed is NM_001243088.2, and it contains 3507 bp. The following primers were used for shRNA production: 5′-ccgg-[…]-ctcgag-[…]-tttttg-3′ (forward primer) and 5′-aattcaaaaa-AGCAAG AGATGGAGGAAAAGG-ctcgag-[…]-3′ (reverse primer). Then, after purifying and concentrating each lentivirus for expression of the produced FoxM1 shRNA, it was constructed by infecting a lung cancer cell line, A549 cells expressing FoxM1, with the virus. The mRNA expression of M2 markers, CD163, CD206, and VEGFA, was examined after co-culturing lung cancer cells (4×10^4 cells/ml) with suppressed FoxM1 expression and THP-1 cells (1.2×10^5 cells/ml) for 48 h. […] When co-culturing with cancer cells expressing the FoxM1 variant S25E, it was confirmed that the M2 markers CD163, CD206, and VEGFA were all increased by 2 folds or more in THP1 cells compared to the control group (Mock_shCtrl) (FIG. 6D).
After co-culturing the FoxM1 WT protein over-expressed cancer cells (4×10^4 cells/ml) and THP-1 cells (1.2×10^5 cells/ml) for 48 h, the mRNA expression of M1 markers INOS and IL12B was not altered, while the mRNA expression of all the M2 markers IL10, CD163, CD206, TGFB1, and VEGFA was increased in the FoxM1 WT (FIG. 13A). Among them, CD206, TGFB1, and VEGFA had been known as markers for M2d-tumor-associated macrophages (M2d-TAM) (JAYASINGAM, Sharmilla Devi, et al., Frontiers in Oncology (2020) 9: 1512.).

A549 cells [2] = test: PD-L1 (CD274) mRNA in A549 cells by real-time PCR; type: cell-based; details: A549 cells expressing the protein
Method: To examine the mRNA expression levels of PD-1 and PD-L1, which are involved in solid tumor immune evasion, in THP-1 cells and the cells expressing the FoxM1 phosphorylated point mutant, the expression of PD-1 (CD279) mRNA, an immune evasion factor, was measured by qRT-PCR in THP-1 monocytes co-cultured with A549^S25E cells for 48 h (FIG. 7B). It was observed that the expression of mRNA of PD-L1 (CD274), an immune evasion factor, increased by 2 folds in the A549^S25E cells expressing the phosphorylated point mutant compared to the control group.

lung tissues = test: CD68 and CD163 immunostaining and immunoblot of lung tissues of injected mice; type: in vivo; details: lung tissues of injected mice
Method: Additionally, the increase of macrophages around the tumor was examined by immunoblot using lung tissue lysates. […] Through the results of this study, it could be observed that the non-phosphorylated point mutant had the effect of inhibiting polarization into tumor-associated macrophages.
Furthermore, CD68, a marker for a broad range of macrophages, and CD163, a marker for tumor-associated macrophages, were analyzed in lung tissues of mice using immunostaining. It was determined that the expression of both CD68 and CD163 markers was increased in the lung tissues of mice injected with the FoxM1 WT protein over-expressed cells (FIG. 13D). Through the present results, it could be observed that there was an effect of promoting the polarization of M2 tumor-associated macrophages in lung cancer cells expressing the FoxM1 WT protein.

A549 cells [3] = test: ELISA of TGFB1 and VEGFA proteins in A549 culture medium; type: cell-based; details: medium cultured 48 h
Method: (§1) In addition, after co-culturing of human monocyte THP-1 cells and cell groups over-expressing FoxM1 point mutations for 48 hours under the conditions where the previous experiments were performed, the mRNA expression levels of M2d-inducing factors IL4, IL6, IL10, and VEGFA in A549 cells expressing FoxM1 S25E were analyzed. […] The amounts of TGFB1 and VEGFA proteins in the medium cultured for 48 h with A549 cells (4×10^4 cells/ml) expressing FoxM1 variants were measured by ELISA.

A549 cells [4] = test: M2d-inducing factor mRNA in A549 cells after co-culture with THP-1 cells; type: cell-based; details: co-culture with THP-1 48 hours
Method: as §1

A549 lung cancer cells [5] = test: EMT marker expression (immunoblot, real-time PCR) in A549 cells expressing FoxM1 WT or mutants; type: cell-based; details: FoxM1 WT
Description: To establish a stabilized cell line expressing WT, phosphorylation, and non-phosphorylated point mutants of FoxM1 in lung cancer cells, A549 cells were first infected with pLVX-Tet3G expressing lentivirus, and the infected cells were selected by treating with G418 for 5 days. The selected A549Tet3G cells were infected with lentiviruses expressing WT and phosphorylated point mutants (S25E, S361E, S715E) and non-phosphorylated point mutants (S25A, S361A, S715A) of FoxM1, and then treated with puromycin for 48 hours to establish a stabilized cell line. The established cells were treated with 2 μg/ml of doxycycline to induce expression of WT, phosphorylation, and non-phosphorylated point mutants of FoxM1, and the mRNA and protein expression levels of each FoxM1 point mutant were determined to confirm whether they were well expressed. As shown in FIG. 4A and FIG. 4B, it was confirmed that the WT and each point mutant form of FoxM1 were well expressed through mRNA and protein expression levels. It was observed that the expression levels of N-cadherin and vimentin were higher, and the expression levels of E-cadherin were lower in lung cancer cells expressing the phosphorylated form of FoxM1, specifically, phosphorylated at the phosphorylation site S25, compared to the cells expressing the non-phosphorylated form of FoxM1. In addition, when it was examined whether the expression of these phosphorylation and non-phosphorylated point mutants of FoxM1 affected cell proliferation, it was observed that it had no significant effect on cell proliferation (FIG. 4C).
To establish a stabilized cell line expressing FoxM1 WT in A549 lung cancer cells, first, pLVX-Tet3G expressing lentivirus was infected into cells, and the infected cells were selected by treating 500 μg/ml of G418 for 5 days. The selected A549^Tet3G cells were infected with lentiviruses expressing FoxM1 WT or Mock, and the stabilized cell lines were established by treating with 2 μg/ml of puromycin for 48 hours. After inducing the expression of FoxM1 WT by treating the established cells with 2 μg/ml of doxycycline, the protein expression was observed by immunoblot.

C=C(NC(=O)C(=C)NC(=O)c1csc(C2=N[C@@H]3c4csc(n4)[C@H]4NC(=O)c5csc(n5)[C@H]([C@](C)(O)[C@@H](C)O)NC(=O)[C@H]5CSC(=N5)/C(=C/C)NC(=O)[C@H]([C@@H](C)O)NC(=O)c5csc(n5)[C@]3(CC2)NC(=O)[C@H](C)NC(=O)C(=C)NC(=O)[C@H](C)NC(=O)[C@H]([C@@H](C)CC)N[C@@H]2C=Cc3c([C@H](C)O)cc(nc3[C@H]2O)C(=O)O[C@@H]4C)n1)C(N)=O [Thiostrepton]
expression of IL6, VEGFA and CD274 (PD-L1) (A549 lung cancer cells [1]): significantly reduced
expression of mesenchymal markers CDH2, vimentin, SNAI1 and SNAI2 (A549 lung cancer cells [1]): significantly reduced
expression of IL6, VEGFA and CD274 (PD-L1) (A549 lung cancer cells [1]; listed as thiostepton): reduced
expression of mesenchymal markers CDH2, vimentin, SNAI1 and SNAI2 (A549 lung cancer cells [1]; listed as thiostepton): reduced

B1: FoxM1 WT: wild-type FoxM1 protein (SEQ ID NO: 1) over-expressed by lentivirus in A549 cells (protein, listed as Homo sapiens)
chain: MKTSPRRPLILKRRRLPLPVQNAPSETSEEEPKRSPAQQESNQAEASKEVAESNSCKFPAGIKIINHPTMPNTQVVAIPNNANIHSIITALTAKGKESGSSGPNKFILISCGGAPTQPPGLRPQTQTSYDAKRTEVTLETLGPKPAARDVNLPRPPGALCEQKRETCDGEAAGCTINNSLSNIQWLRKMSSDGLGSRSIKQEMEEKENCHLEQRQVKVEEPSRPSASWQNSVSERPPYSYMAMIQFAINSTERKRMTLKDIYTWIEDHFPYFKHIAKPGWKNSIRHNLSLHDMFVRETSANGKVSFWTIHPSANRYLTLDQVFKQQQKRPNPELRRNMTIKTELPLGARRKMKPLLPRVSSYLVPIQFPVNQSLVLQPSVKVPLPLAASLMSSELARHSKRVRIAPKVLLAEEGIAPLSSAGPGKEEKLLFGEGFSPLLPVQTIKEEEIQPGEEMPHLARPIKVESPPLEEWPSPAPSFKEESSHSWEDSSQSPTPRPKKSYSGLRSPTRCVSEMLVIQHRERRERSRSRRKQHLLPPCVDEPELLFSEGPSTSRWAAELPFPADSSDPASQLSYSQEVGGPFKTPIKETLPISSTPSKSVLPRTPESWRLTPPAKVGGLDFSPVQTSQGASDPLPDPLGLMDLSTTPLQSAPPLESPQRLLSSEPLDLISVPFGNSSPSDIDVPKPGSPEPQVSGLAANRSLTEGLVLDTMNDSLSKILLDISFPGLDEDPLGPDNINWSQFIPELQ
mRNA expression of M1 markers INOS and IL12B in THP-1 cells (THP-1 cells): not altered
mRNA expression of M2 markers IL10, CD163, CD206, TGFB1 and VEGFA in THP-1 cells (in words) (THP-1 cells): increased
mRNA expression of PD-L1 (CD274) compared to the control group (A549 cells [2]): about 2.3 folds
expression of CD68 and CD163 markers, immunostaining (in words) (lung tissues): increased
amounts of TGFB1 and VEGFA proteins in medium (in words) (A549 cells [3]): markedly increased
mRNA expression levels of M2d-inducing factors IL4, IL6, IL10 and VEGFA in A549 cells (in words) (A549 cells [4]): increased
FoxM1 expression, real-time polymerase chain reaction (A549 lung cancer cells [5]): 4.4 folds
expression of E-cadherin, real-time polymerase chain reaction (reduced by) (A549 lung cancer cells [5]): 0.8 folds
expression of N-cadherin, real-time polymerase chain reaction (A549 lung cancer cells [5]): 1.5 folds
expression of vimentin, real-time polymerase chain reaction (A549 lung cancer cells [5]): 1.7 folds
expression of E-cadherin, immunoblot (decreased by) (A549 lung cancer cells [5]; doxycycline 2 μg/ml): 0.6 folds
expression of N-cadherin, immunoblot (A549 lung cancer cells [5]; doxycycline 2 μg/ml): 2.2 folds
expression of vimentin, immunoblot (A549 lung cancer cells [5]; doxycycline 2 μg/ml): 2.8 folds
